Laboratory results reported in the supplement of paper PMC10126150.
± gives the standard deviation of the averaged measurements.

System: ATP
Assay: switch fluorescence ratio, 500 uM ATP over buffer (Cy3 cluster intensity, sum of 5 cycles each) (fold (ratio)); higher = stronger signal-on switching upon ATP binding; sequences stand for … in TCGTCGGCAGCGTCAGATGTGTATAAGAGACAGTTTTTTTTTTTTTTTTTTTTTTTTT…TC
Details: aptamer strand: ATP DNA aptamer (quencher-CACCTGGGGGAGTATTGCGGAGGAAGG + anchor), 100 nM annealed; ATP concentration: 500 uM
Summary of the method: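 Per cluster, summed Cy3 intensity from the target cycles was divided by that from the buffer cycles to give the fluorescence ratio, then averaged per switch-domain sequence. Clusters outside 100-1000 RFU were excluded. The Cy3-labelled switching-strand clusters, on a modified Illumina MiSeq flow-cell, were annealed to 100 nM quencher-labelled ATP aptamer and imaged in selection buffer, then after 15 min with 500 uM ATP at 22 °C, for five cycles with NaOH stripping and re-annealing between them.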
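Also: ATP exposure 15 min at 22 °C before imaging.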

Sequence | switch fluorescence ratio
GTTTGGTCTT | 0.95 ± 0.017
GTTTGGTTTT | 0.99 ± 0.014
GTTTGTCCTG | 1.007 ± 0.0071
GTTTGTGAAC | 0.9821 ± 0.006
GTTTGTGGAG | 0.9683 ± 0.0071
GTTTGTGGGT | 0.977 ± 0.011
GTTTGTGGTG | 1.01 ± 0.017
GTTTGTGTTG | 0.993 ± 0.017
GTTTGTTATG | 0.999 ± 0.042
GTTTGTTCGG | 0.995 ± 0.015
GTTTGTTTAC | 0.987 ± 0.014
GTTTTAAGTG | 0.981 ± 0.034
GTTTTAATTA | 1.01 ± 0.021
GTTTTAGCGC | 1 ± 0.049
GTTTTAGGGA | 0.979 ± 0.037
GTTTTATCAG | 0.961 ± 0.039
GTTTTATGCG | 1.02 ± 0.035
GTTTTATTCT | 1 ± 0.023
GTTTTATTGA | 0.986 ± 0.015
GTTTTCATGG | 0.996 ± 0.013
GTTTTCCGGG | 1.01 ± 0.027
GTTTTCGTCG | 1.01 ± 0.054
GTTTTCTGTT | 1.0024 ± 0.00021
GTTTTGGCG | 1.03 ± 0.032
GTTTTGGTCG | 0.9894 ± 0.007
GTTTTGTAAG | 1 ± 0.023

Sequence | switch fluorescence ratio
GTTTTGTGCA | 0.9978 ± 0.0052
GTTTTTACTA | 0.998 ± 0.014
GTTTTTCTGG | 0.9738 ± 0.0078
GTTTTTGAAT | 0.992 ± 0.033
GTTTTTGACG | 0.955 ± 0.042
GTTTTTGATG | 0.971 ± 0.021
GTTTTTGGGT | 0.984 ± 0.033
GTTTTTTCGA | 1.024 ± 0.0051
GTTTTTTGCT | 0.9809 ± 0.0051
GTTTTTTGTT | 0.999 ± 0.043
GTTTTTTTCT | 1 ± 0.051
GTTTTTTTGA | 1.0032 ± 0.00018
TAAAAAAGAG | 0.98 ± 0.03
TAAAAAAGGT | 1.04 ± 0.088
TAAAAAAGTG | 1.02 ± 0.02
TAAAAAATGG | 1 ± 0.044
TAAAAAGAAG | 1 ± 0.045
TAAAAAGGGT | 1 ± 0.048
TAAAAATAAA | 0.995 ± 0.0065
TAAAAATGGT | 1.01 ± 0.024
TAAAAATTTT | 0.999 ± 0.01
TAAAACCGGG | 1 ± 0.025
TAAAACCTGA | 1.17 ± 0.054
TAAAACGCGT | 1.68 ± 0.94
TAAAACTTAC | 1.45 ± 0.1
TAAAAGAGGT | 0.9962 ± 0.0081

Sequence | switch fluorescence ratio
TAAAAGCCTG | 1.02 ± 0.052
TAAAAGCTGG | 1.02 ± 0.078
TAAAAGGACG | 1.09 ± 0.024
TAAAAGGGAG | 1.03 ± 0.058
TAAAAGGGGC | 0.985 ± 0.098
TAAAAGGGTG | 0.977 ± 0.033
TAAAAGTAGT | 1.03 ± 0.041
TAAAAGTTAA | 0.981 ± 0.018
TAAAATAGTG | 0.997 ± 0.047
TAAAATCATT | 0.974 ± 0.035
TAAAATGGTT | 1.02 ± 0.032
TAAAATTGAT | 0.9818 ± 0.0038
TAAAATTGTT | 0.991 ± 0.052
TAAACACTAA | 1.01 ± 0.038
TAAACCGGTA | 1.03 ± 0.031
TAAACGAAGC | 1.06 ± 0.039
TAAACGGGGG | 1.04 ± 0.045
TAAACGTCGA | 0.962 ± 0.065
TAAACTGGTT | 0.999 ± 0.029
TAAACTTTTG | 0.9786 ± 0.0039
TAAAGAAAGG | 1.02 ± 0.013
TAAAGACAGC | 1.006 ± 0.0073
TAAAGAGATG | 1.011 ± 0.0072
TAAAGAGGTA | 1.02 ± 0.013
TAAAGCGGGC | 1.05 ± 0.043
TAAAGCTGAT | 1.01 ± 0.012

Sequence | switch fluorescence ratio
TAAAGGCTGG | 1.015 ± 0.0052
TAAAGGGAAG | 1.01 ± 0.021
TAAAGGGCT | 1.001 ± 0.0055
TAAAGGTCGT | 0.97444 ± 0.00071
TAAAGGTTGC | 0.984 ± 0.02
TAAAGTGCGG | 1.03 ± 0.058
TAAAGTTAAA | 1 ± 0.048
TAAAGTTTGC | 0.995 ± 0.017
TAAAGTTTGT | 0.958 ± 0.026
TAAAGTTTTG | 0.995 ± 0.017
TAAATAAATG | 0.976 ± 0.048
TAAATACGGT | 1.03 ± 0.062
TAAATACTCA | 1.16 ± 0.083
TAAATATTAG | 0.9837 ± 0.0031
TAAATATTGG | 1.04 ± 0.034
TAAATATTTT | 1.08 ± 0.14
TAAATCACGC | 1.23 ± 0.24
TAAATCCAGG | 1.24 ± 0.028
TAAATCCTGG | 0.961 ± 0.023
TAAATCGGGG | 0.995 ± 0.049
TAAATGAGGT | 0.998 ± 0.015
TAAATGATAT | 0.984 ± 0.02
TAAATGGGCT | 1.04 ± 0.025
TAAATGGTTG | 0.9863 ± 0.0094
TAAATGTATG | 1.01 ± 0.041
TAAATGTCTT | 1.025 ± 0.0077

Sequence | switch fluorescence ratio
TAAATGTGGG | 1 ± 0.069
TAAATGTTGT | 0.9869 ± 0.0055
TAAATTCCGA | 1.07 ± 0.038
TAAATTGCG | 0.9991 ± 0.0013
TAAATTTTCA | 1.03 ± 0.031
TAACAATTTT | 1.01 ± 0.019
TAACACGGTA | 1.16 ± 0.0035
TAACAGCTGT | 1.04 ± 0.041
TAACAGTAAC | 1.08 ± 0.05
TAACAGTGAG | 0.964 ± 0.021
TAACATACAT | 1.18 ± 0.11
TAACATTTAT | 0.979 ± 0.027
TAACATTTTT | 1 ± 0.022
TAACCGGGGG | 1.67 ± 1.2
TAACCTGCCC | 2.26 ± 0.12
TAACGCGGAC | 2.5233 ± 3.9e-05
TAACGGGGGG | 0.999 ± 0.045
TAACGGGTTT | 1.02 ± 0.015
TAACGGTCAG | 1.025 ± 0.0095
TAACGGTGTA | 1.02 ± 0.026
TAACGGTTAT | 1.01 ± 0.024
TAACGGTTG | 0.98 ± 0.017
TAACTAAACT | 1.12 ± 0.08
TAACTGACGG | 1.268 ± 0.012
TAAGAAAGGT | 1 ± 0.0053
TAAGAAGGAA | 0.9918 ± 0.0091

Sequence | switch fluorescence ratio
TAAGACAGGG | 1.02 ± 0.028
TAAGACCAGT | 0.981 ± 0.034
TAAGAGGCCT | 1.02 ± 0.031
TAAGAGTTGG | 0.999 ± 0.018
TAAGATATTT | 0.9715 ± 0.0094
TAAGATTCGT | 1 ± 0.031
TAAGATTTTC | 0.973 ± 0.046
TAAGCAATGT | 2.69 ± 1.1
TAAGCAGTGG | 1.02 ± 0.022
TAAGCATTTC | 1.34 ± 0.11
TAAGCCTGTT | 1 ± 0.021
TAAGCGGCGC | 0.989 ± 0.084
TAAGCGGGAC | 2.88 ± 2
TAAGCGGGGC | 1.0163 ± 0.00063
TAAGCTCTCG | 0.9915 ± 0.0027
TAAGCTTGTA | 1.01 ± 0.022
TAAGGAAAAT | 0.998 ± 0.02
TAAGGACATT | 1.03 ± 0.015
TAAGGACGGA | 1.01 ± 0.071
TAAGGAGACA | 1.01 ± 0.045
TAAGGAGGAG | 1 ± 0.013
TAAGGAGGTC | 0.99 ± 0.031
TAAGGAGTAG | 0.991 ± 0.027
